Experimental data as given in article PMC7901475.

Target: T1, PsdR (Pseudomonas aeruginosa PAO1?) (UniProt Q9HVS2)
T1 sequence: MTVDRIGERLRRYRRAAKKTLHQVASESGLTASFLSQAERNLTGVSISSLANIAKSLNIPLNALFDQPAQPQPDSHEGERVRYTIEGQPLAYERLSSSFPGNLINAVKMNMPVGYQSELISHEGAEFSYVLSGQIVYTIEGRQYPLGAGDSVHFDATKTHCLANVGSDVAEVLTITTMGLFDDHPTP
Experiment: EMSA
Conditions: EMSA: 0.5 nM Cy5 probe, 10 mM Tris-HCl pH 8, 50 mM KCl, 10 mM MgCl2, 10% glycerol, 0.1 mg/ml BSA, 25 ng/ul poly(dI-dC), 15 min at 25 C; competition with 100 nM …

Sequence | binding
CCCGAACCCCTATTTTTAAGTGTGACTGAAAATTTGTTTTGACCTGAATCAGTTCTCGACTTAAATTTCAGCCCGGTCCAGACGAGGAGAACA (double strand) [pPA4498 (mdpA promoter) half-site mutant] | binds more weakly
CCCGAACCCCTATTTTTAAGTGTGACTGAAAATTTGTTTTGACCTGAATTTAAGCTCGACTTAAATTTCAGCCCGGTCCAGACGAGGAGAACA (double strand) [pPA4498 (mdpA promoter) wild type] | binds
